Measurements as given in patent publication US7879338B2, “Vectors and methods for immunization against norovirus using transgenic plants” (Boyce Thompson Institute for Plant Research, priority 2003, dated 2011).

Legend:
mice = assay: Oral immunogenicity of tomato sNV110-2 powder versus gavaged iNV VLPs; type: in vivo, mouse
Description: FIGS. 23A-B show the immunologic response of mice to rNV-transgenic tomato. […] Five mice in each group ingested 1.2 g, 1.5 g or 2.3 g of tomato powder mixed with 0.6 volume of water, on days 1, 4, 17, and 20. One group was gavaged with 100 g iNV VLPs each. Nontransgenic tomato powder was fed to a negative control group. […] Standard errors were calculated on the log-transformed titers.
Three doses of tomato sNV110-2 powder (1.5 gm, 2.5 gm, or 5 gm) were provided on days 1, 4, 17, and 20. The actual doses ingested by each mouse were, on average, 1.2, 1.5 and 2.2 gm each feeding, containing 192, 240, and 352 μg rNV/dose, respectively, or 60, 75, and 1101 g VLPs/dose. Nontransgenic tomato TA234 powder (5 gram per mouse per feed) were given to one control group (−), and 100 μg purified iNV VLPs were orally administered by gavage to another control group (+). Serum and fecal antibodies were measured by ELISA, and GMTs were calculated for each group of mice. All pre-immune serum and fecal samples were negative for rNV-specific IgG and IgA, as were control group (−) (titers<20; the lowest dilution tested). […] No significant difference (p=0.05) in primary titers was observed among groups. […] Intestinal antibody responses reached their peaks at 27 dpi with IgA GMTs ranging from 10681 to 19127. […] In contrast, the control i-rNV gavage group had their maximum levels of IgG GMT=826 and IgA GMT=1748, which were 8.2 and 6.2 fold less than the group that ingested 1.2 gram of sNV110-2 powder (p<0.0183). Further, long-term serum antibody responses declined to baseline in 3 months (IgG GMT=58 at 87 dpi).

[1] = low pH, lyophilized, stored long term at 4° C.; cited from earlier work
[2] = day 11, gavage of purified iNV VLPs (100 μg)

B1: iNV VLPs: purified insect cell (baculovirus) derived recombinant Norwalk virus virus-like particles, control reference antigen (protein)
chain: MMMASKDATSSVDGASGAGQLVPEVNASDPLAMDPVAGSSTAVATAGQVNPIDPWIINNFVQAPQGEFTISPNNTPGDVLFDLSLGPHLNPFLLHLSQMYNGWVGNMRVRIMLAGNAFTAGKIIVSCIPPGFGSHNLTIAQATLFPHVIADVRTLDPIEVPLEDVRNVLFHNNDRNQQTMRLVCMLYTPLRTGGGTGDSFVVAGRVMTCPSPDFNFLFLVPPTVEQKTRPFTLPNLPLSSLSNSRAPLPISSMGISPDNVQSVQFQNGRCTLDGRLVGTTPVSLSHVAKIRGTSNGTVINLTELDGTPFHPFEGPAPIGFPDLGGCDWHINMTQFGHSSQTQYDVDTTPDTFVPHLGSIQANGIGSGNYVGVLSWISPPSHPSGSQVDLWKIPNYGSSITEATHLAPSVYPPGFGEVLVFFMSKMPGPGAYNLPCLLPQEYISHLASEQAPTVGEAALLHYVDPDTGRNLGEFKAYPDGFLTCVPNGASSGPQQLPINGVFVFVSWVSRFYQLKPVGTASSARGRLGLRR
- IgA GMT (mice; [2]): 62
- IgG GMT (mice; [2]): 18
- mice with primary intestinal antibody responses (mice; [2]): 2 of 5
- mice with primary serum antibody responses (mice; [2]): 1 of 5
- maximum IgA GMT (mice; i-rNV gavage control group): 1748
- maximum IgG GMT (mice; i-rNV gavage control group): 826
- long-term IgG GMT (mice; i-rNV gavage group, 87 dpi): 58
- maximum IgA GMT, fold less than group ingesting 1.2 gram sNV110-2 powder (mice; p<0.0183): 6.2 fold
- maximum IgG GMT, fold less than group ingesting 1.2 gram sNV110-2 powder (mice; p<0.0183): 8.2 fold
- stability [1]: stable
